Test results from publication PMC7290806, “VviWRKY40, a WRKY Transcription Factor, Regulates Glycosylated Monoterpenoid Production by VviGT14 in Grape Berry”.

Target: T1, VviWRKY40 (Vitis vinifera 'Muscat blanc à Petit …, UniProt E7BTN0 1-317)
T1 sequence: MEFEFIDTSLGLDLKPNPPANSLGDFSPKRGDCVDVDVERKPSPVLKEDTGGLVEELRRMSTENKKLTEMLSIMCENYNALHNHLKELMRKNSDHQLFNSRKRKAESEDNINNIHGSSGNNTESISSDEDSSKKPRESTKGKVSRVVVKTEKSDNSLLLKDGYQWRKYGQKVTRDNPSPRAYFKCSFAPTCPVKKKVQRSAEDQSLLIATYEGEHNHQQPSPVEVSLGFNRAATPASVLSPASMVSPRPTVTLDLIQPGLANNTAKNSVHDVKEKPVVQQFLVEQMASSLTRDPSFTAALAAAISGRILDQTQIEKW
Test: EMSA; shift without cold probe and with up to 50x cold probe; 50x and 200x unlabeled self-competitor tested; EMSA: LightShift Chemiluminescent kit, 50 ng protein, 15 ng probe, room temperature, 25 min (buffer and pH not stated); pull-down: poly(dI-dC), DTT, EDTA, EGTA, 4 °C, 1 h
Details: protein: recombinant; tags: 6xHis, pET32a fusion (19 kDa tag, 55 kDa in total); label: 3' biotin (Methods also says digoxigenin-labeled); blunt (duplex implied, only one strand printed)

B1: VviGT14 promoter 41-bp w-box fragment (dsDNA)
DNA 1: AGAAGTGAGAGGGTAAGTTGACCATGCACTCTCATCTAGAT
DNA 2: ATCTAGATGAGAGTGCATGGTCAACTTACCCTCTCACTTCT
  binding result: binds
